According to patent publication US20210380703A1:

Target: human Fc (human)
Test: ELISA, negative control

| optical density | Binder |
| --- | --- |
| 0.431 OD | 372_E02 (antibody, V domains shown) VH: EVQLLESGGGLVQPGGSLRLSCAASGFTFSSYGMNWVRQAPGKGLEWVASINYNGGYTSYADSVKGRFTISRDNSKNTLYLQMNSLRAEDTAVYYCARAANWHDTALDYWGQGTLVTVSS VL: DIQMTQSPSSLSASVGDRVTITCRASQSIISYVNWYQQKPGKAPKLVIYAATSRASGVPSRFSGSGSGTDFTLTISSLQPEDFATYYCQQSYDLPLTFGGGTKVEIK |
| 0.179 OD | 374_B02 (antibody, V domains shown) VH: EVQLLESGGGLVQPGGSLRLSCAASGFTFDSYSMHWVRQAPGKGLEWVAGINYNSGYTSYADSVKGRFTISRDNSKNTLYLQMNSLRAEDTAVYYCARAANWHDTHLDYWGQGTLVTVSS VL: DIQMTQSPSSLSASVGDRVTITCRASQSIISYLNWYQQKPGKAPKLLIYAATSRASGVPSRFSGSGSGTDFTLTISSLQPEDFATYYCQQSYDSPLTFGGGTKVEIK |
| 0.285 OD | 376_G02 (antibody, V domains shown) VH: EVQLLESGGGLVQPGGSLRLSCAASGFTFSDYGMNWVRQAPGKGLEWVSGINYNGGYTSYADSVKGRFTISRDNSKNTLYLQMNSLRAEDTAVYYCARAANWHDTALDYWGQGTLVTVSS VL: DIQMTQSPSSLSASVGDRVTITCRASQSISRYLNWYQQKPGKAPKLVIYAATSLASGVPSRFSGSGSGTDFTLTISSLQPEDFATYYCQQSYDNPLTFGGGTKVEIK |
| 0.176 OD | 375_A11 (antibody, V domains shown) VH: EVQLLESGGGLVQPGGSLRLSCAASGFTFSDYGMHWVRQAPGKGLEWVSSINYNSGYKSYADSVKGRFTISRDNSKNTLYLQMNSLRAEDTAVYYCARAANWHDTALDYWGQGTLVTVSS VL: DIQMTQSPSSLSASVGDRVTITCRASQSIVSYLNWYQQKPGKAPKLLIYYVTNLASGVPSRFSGSGSGTDFTLTISSLQPEDFATYYCQQSYDNPLTFGGGTKVEIK |
| 0.185 OD | 374_F03 (antibody, V domains shown) VH: EVQLLESGGGLVQPGGSLRLSCAASGFTFSSYGMNWVRQAPGKGLEWVASINYNGGYTSYADSVKGRFTISRDNSKNTLYLQMNSLRAEDTAVYYCARAANWHDTHLDYWGQGTLVTVSS VL: DIQMTQSPSSLSASVGDRVTITCRASQSIISYVNWYQQKPGKAPKLVIYAATSRASGVPSRFSGSGSGTDFTLTISSLQPEDFATYYCQQSYDTPLTFGGGTKVEIK |
| 0.175 OD | 375_F12 (antibody, V domains shown) VH: EVQLLESGGGLVQPGGSLRLSCAASGFTFDSYGMHWVRQAPGKGLEWVASINYNGGYTSYADSVKGRFTISRDNSKNTLYLQMNSLRAEDTAVYYCARAANWHDTALDYWGQGTLVTVSS VL: DIQMTQSPSSLSASVGDRVTITCRASQSILTYLNWYQQKPGKAPKLVIYAATSRASGVPSRFSGSGSGTDFTLTISSLQPEDFATYYCQQSDELPLTFGGGTKVEIK |
| 0.29 OD | 367_C06 (antibody, V domains shown) VH: EVQLLESGGGLVQPGGSLRLSCAASGFTFDSYSMHWVRQAPGKGLEWVASINYNGGYKSYADSVKGRFTISRDNSKNTLYLQMNSLRAEDTAVYYCARAATWHDTHLDYWGQGTLVTVSS VL: DIQMTQSPSSLSASVGDRVTITCRASQSILTYLNWYQQKPGKAPKLVIYAATSLHSGVPSRFSGSGSGTDFTLTISSLQPEDFATYYCQQSYDTPLTFGGGTKVEIK |
| 0.216 OD | 375_H01 (antibody, V domains shown) VH: EVQLLESGGGLVQPGGSLRLSCAASGFTFSDYSMNWVRQAPGKGLEWVAGINYNSGYTSYADSVKGRFTISRDNSKNTLYLQMNSLRAEDTAVYYCARAANWHDTHLDYWGQGTLVTVSS VL: DIQMTQSPSSLSASVGDRVTITCRASQSILTYLNWYQQKPGKAPKLLIYAATSRHSGVPSRFSGSGSGTDFTLTISSLQPEDFATYYCQQSYSNPLTFGGGTKVEIK |
| 0.177 OD | 375_A04 (antibody, V domains shown) VH: EVQLLESGGGLVQPGGSLRLSCAASGFTFDSYGMNWVRQAPGKGLEWVAGINYNGGYKSYADSVKGRFTISRDNSKNTLYLQMNSLRAEDTAVYYCARAANWHDTALDYWGQGTLVTVSS VL: DIQMTQSPSSLSASVGDRVTITCRASQSILTYLNWYQQKPGKAPKLVIYYVNNLPSGVPSRFSGSGSGTDFTLTISSLQPEDFATYYCQQSYNSPLTFGGGTKVEIK |
| 0.243 OD | 373_E11 (antibody, V domains shown) VH: EVQLLESGGGLVQPGGSLRLSCAASGFTFDSYGMHWVRQAPGKGLEWVASINYNGGYTSYADSVKGRFTISRDNSKNTLYLQMNSLRAEDTAVYYCARAANWHDTALDYWGQGTLVTVSS VL: DIQMTQSPSSLSASVGDRVTITCRASQSIVSYLNWYQQKPGKAPKLVIYAATSRASGVPSRFSGSGSGTDFTLTISSLQPEDFATYYCQQSYDSPLTFGGGTKVEIK |

The remaining lines, values behind:

| Binder | optical density |
| --- | --- |
| 365_F10 (antibody, V domains shown) VH: EVQLLESGGGLVQPGGSLRLSCAASGFTFDDYGMHWVRQAPGKGLEWVSGINYNGGYTSYADSVKGRFTISRDNSKNTLYLQMNSLRAEDTAVYYCARAATWHDTHLDYWGQGTLVTVSS VL: DIQMTQSPSSLSASVGDRVTITCRASQSIVTYVNWYQQKPGKAPKLLIYAATSRASGVPSRFSGSGSGTDFTLTISSLQPEDFATYYCQQSYELPLTFGGGTKVEIK | 0.386 OD |
| 366_H01 (antibody, V domains shown) VH: EVQLLESGGGLVQPGGSLRLSCAASGFTFDDYSMHWVRQAPGKGLEWVANINYNGGYTSYADSVKGRFTISRDNSKNTLYLQMNSLRAEDTAVYYCARAATWHDTHLDYWGQGTLVTVSS VL: DIQMTQSPSSLSASVGDRVTITCRASQSILTYLNWYQQKPGKAPKLVIYATTSRHSGVPSRFSGSGSGTDFTLTISSLQPEDFATYYCQQSYESPLTFGGGTKVEIK | 0.384 OD |
| 365_D03 (antibody, V domains shown) VH: EVQLLESGGGLVQPGGSLRLSCAASGFTFDDYSMHWVRQAPGKGLEWVASINYNGGYKSYADSVKGRFTISRDNSKNTLYLQMNSLRAEDTAVYYCARAATWHDTHLDYWGQGTLVTVSS VL: DIQMTQSPSSLSASVGDRVTITCRASQSIVSYLNWYQQKPGKAPKLVIYAATSRASGVPSRFSGSGSGTDFTLTISSLQPEDFATYYCQQSYDSPLTFGGGTKVEIK | 0.346 OD |
| 366_B09 (antibody, V domains shown) VH: EVQLLESGGGLVQPGGSLRLSCAASGFTFSDYGMHWVRQAPGKGLEWVSSINYNSGYKSYADSVKGRFTISRDNSKNTLYLQMNSLRAEDTAVYYCARAATWHDTHLDYWGQGTLVTVSS VL: DIQMTQSPSSLSASVGDRVTITCRASQSILTYLNWYQQKPGKAPKLVIYAATSRHSGVPSRFSGSGSGTDFTLTISSLQPEDFATYYCQQSYDSPLTFGGGTKVEIK | 0.283 OD |
| 365_G06 (antibody, V domains shown) VH: EVQLLESGGGLVQPGGSLRLSCAASGFTFDSYGMHWVRQAPGKGLEWVAGINYNGGYTSYADSVKGRFTISRDNSKNTLYLQMNSLRAEDTAVYYCARAATWHDTHLDYWGQGTLVTVSS VL: DIQMTQSPSSLSASVGDRVTITCRASQSILSYLNWYQQKPGKAPKLLIYAATSLASGVPSRFSGSGSGTDFTLTISSLQPEDFATYYCQQSDSTPLTFGGGTKVEIK | 0.32 OD |
| 366_G02 (antibody, V domains shown) VH: EVQLLESGGGLVQPGGSLRLSCAASGFTFDSYGMHWVRQAPGKGLEWVSSINYNGGYTSYADSVKGRFTISRDNSKNTLYLQMNSLRAEDTAVYYCARAATWHDTHLDYWGQGTLVTVSS VL: DIQMTQSPSSLSASVGDRVTITCRASQSILTYLNWYQQKPGKAPKLLIYAATSRHSGVPSRFSGSGSGTDFTLTISSLQPEDFATYYCQQSDDNPLTFGGGTKVEIK | 0.357 OD |
| 365_D08 (antibody, V domains shown) VH: EVQLLESGGGLVQPGGSLRLSCAASGFTFDSYSMHWVRQAPGKGLEWVSSINYNGGYTSYADSVKGRFTISRDNSKNTLYLQMNSLRAEDTAVYYCARAATWHDTHLDYWGQGTLVTVSS VL: DIQMTQSPSSLSASVGDRVTITCRASQSIITYVNWYQQKPGKAPKLLIYAATSRASGVPSRFSGSGSGTDFTLTISSLQPEDFATYYCQQSYDTPLTFGGGTKVEIK | 0.35 OD |
| 365_B12 (antibody, V domains shown) VH: EVQLLESGGGLVQPGGSLRLSCAASGFTFSDYGMHWVRQAPGKGLEWVSGINYNGGYTSYADSVKGRFTISRDNSKNTLYLQMNSLRAEDTAVYYCARAATWHDTHLDYWGQGTLVTVSS VL: DIQMTQSPSSLSASVGDRVTITCRASQSISTYVNWYQQKPGKAPKLLIYAVTSLHSGVPSRFSGSGSGTDFTLTISSLQPEDFATYYCQQSYDNPLTFGGGTKVEIK | 0.307 OD |
| 366_C05 (antibody, V domains shown) VH: EVQLLESGGGLVQPGGSLRLSCAASGFTFDDYGMHWVRQAPGKGLEWVSSINYNGGYTGYADSVKGRFTISRDNSKNTLYLQMNSLRAEDTAVYYCARAATWHDTHLDYWGQGTLVTVSS VL: DIQMTQSPSSLSASVGDRVTITCRASQSIISYLNWYQQKPGKAPKLVIYAATSRASGVPSRFSGSGSGTDFTLTISSLQPEDFATYYCQQSYDSPLTFGGGTKVEIK | 0.269 OD |
| 365_C06 (antibody, V domains shown) VH: EVQLLESGGGLVQPGGSLRLSCAASGFTFSDYGMHWVRQAPGKGLEWVSGINYNGGYTSYADSVKGRFTISRDNSKNTLYLQMNSLRAEDTAVYYCARAANWHDTALDYWGQGTLVTVSS VL: DIQMTQSPSSLSASVGDRVTITCRASQSISTYVNWYQQKPGKAPKLLIYAVTSLASGVPSRFSGSGSGTDFTLTISSLQPEDFATYYCQQSYDNPLTFGGGTKVEIK | 0.318 OD |
| 366_E07 (antibody, V domains shown) VH: EVQLLESGGGLVQPGGSLRLSCAASGFTFDSYGMHWVRQAPGKGLEWVAGINYNGGYTSYADSVKGRFTISRDNSKNTLYLQMNSLRAEDTAVYYCARAATWHDTALDYWGQGTLVTVSS VL: DIQMTQSPSSLSASVGDRVTITCRASQSILTYLNWYQQKPGKAPKLVIYAATSRHSGVPSRFSGSGSGTDFTLTISSLQPEDFATYYCQQSDNSPLTFGGGTKVEIK | 0.262 OD |
| 365_D04 (antibody, V domains shown) VH: EVQLLESGGGLVQPGGSLRLSCAASGFTFSDYGMHWVRQAPGKGLEWVAGINYNGGYKSYADSVKGRFTISRDNSKNTLYLQMNSLRAEDTAVYYCARAANWHDTALDYWGQGTLVTVSS VL: DIQMTQSPSSLSASVGDRVTITCRASQSISSYLNWYQQKPGKAPKLVIYAVTSRASGVPSRFSGSGSGTDFTLTISSLQPEDFATYYCQQSYDLPLTFGGGTKVEIK | 0.316 OD |
